The results in this text go back to patent publication US20130039933A1 (UNIVERSITY OF MIAMI, published 2013).

For test [1], the target named is T1, BD-hSTING-C (carboxyl region of STING, amino acids 173-379, fused to the binding domain of yeast GAL4) (yeast; human, UniProt P04386 1-147).
T1 construct: Yeast two-hybrid bait; also called pGBK-T7-hSTING-C; pGBKT7-STING C-terminal
Put plainly: yeast two-hybrid screen.

In test [2] the target is T1, BD-hSTING-C (carboxyl region of STING, …). Description: yeast two-hybrid, high stringency plates (-Trp, -Leu, -Ade, -His).

B1: Full length DAD1 (defender against apoptotic cell death) fused to the GAL4 activation domain (other, human, UniProt P61803 1-113, looked up, not shown: large carriers)
chain: MSASVVSVISRFLEEYLSSTPQRLKLLDAYLLYILLTGALQFGYCLLVGTFPFNSFLSGFISCVGSFILAVCLRIQINPQNKADFQGISPERAFADFLFASTILHLVVMNFVG
notes: Yeast two-hybrid prey; also called DAD I
Regarding B1, the binding result in test [1] is on record as “binds”.

B2: control vector (AD) (other, yeast, UniProt P04386 768-881, looked up)
chain: ANFNQSGNIADSSLSFTFTNSSNGPNLITTQTNSQALSQPIASSNVHDNFMNNEITASKIDDGNNSKPLSPGWTDQTAYNAFGITTGMFNTTTMDDVYNYLFDDEDTPPNPKKE
notes: Yeast two-hybrid negative control
Consider B2, for which the binding result in test [2] was “no binding”.
